In patent CN111018979A (DONGGUAN PENGZHI BIOTECHNOLOGY CO LTD, dated 2020) one finds Kd, koff and kon data, which are given here for one molecule.

The experiment addresses T1, cTnI质控品重组蛋白 (recombinant cardiac troponin I quality-control antigen, made in-house) (human, UniProt P19429 1-210, limits assumed).
T1 construct: The assay paragraph says only 'cTnI质控品重组蛋白(公司自产重组抗原)', so the limits of the construct are unknown; also called 心肌肌钙蛋白I; cTnI质控品重组抗原
In words: BLI, antibody held on AMC sensor, cTnI recombinant protein in solution in a dilution series.

T1 sequence (P19429 whole entry): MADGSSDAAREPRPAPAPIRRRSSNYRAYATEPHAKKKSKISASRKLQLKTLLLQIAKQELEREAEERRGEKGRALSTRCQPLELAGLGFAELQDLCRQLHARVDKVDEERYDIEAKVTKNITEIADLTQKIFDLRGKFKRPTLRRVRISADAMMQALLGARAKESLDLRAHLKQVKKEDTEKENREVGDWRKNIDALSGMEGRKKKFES

B1: Anti-cTnI 2E7 recombinant antibody (sample 1 of Example 1) (antibody, V domains shown)
VH: QVQLQQPGAELVRPGASVKLSCKASDYTFSSYWMQWVKQRPGQGLEWIGMLDPSDSETHYNQLFKDKATLTVDKSSNTAYMQLSSLTSEDSAVYFCAFLTSLGDYWGQGTTLTVSS
VL: DVLMTQTPLSLPVSLGDQASISCRSSQSIIHSQGNSYLEWYLQKPGQSPKLLLYKVSQRLSGVPDRFSGSGSGTDFTLKISRVEAEDLGVYYCFNGSHLPITFGAGTKLELK
For orientation: Kd means the free concentration of one partner at which half of the binding sites on the other are occupied at equilibrium, for simple one-to-one binding. Usually koff stands for the first-order rate constant of dissociation. In general, kon refers to the second-order rate constant of association. B1: the Kd is 64.8 nM, the koff was 0.0027 s⁻¹ and the kon came out at 41700 M⁻¹ s⁻¹.
